In the supplement of paper PMC10567573:

B1: IKZF1 (parent)
chain: RDPFECNMCGYHSQDRYEFSSHIT

Variants of: B1
Experiment: protein stability index of a GFP-peptide fusion (GPS, HEK-293T) (PSI 1-6); higher = more stable
Conditions: c terminus: a fixed tail appended
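Also: lentivirally expressed fusions sorted by FACS into six bins by GFP to DsRed ratio, PSI derived from sequencing read proportions per bin multiplied by bin number.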

Protein stability index: each site, then its substitutions
Q14: R 2.25, K 1.97, F 1.47, N 2.42, L 1.93, T 2.17, V 1.85, Y 2.31, E 2.29, I 2.13, S 2.43, M 1.86, P 2.3, W 1.22, C 1.87, A 1.98, G 2.38, H 2.22, D 2.09
S13: M 1.66, L 1.75, Q 2.39, K 2.1, F 1.78, P 3, R 2.04, W 2.28, E 2.53, T 2.1, C 1.74, I 1.91, G 2.17, H 3.15, N 2.39, V 1.91, D 2.49, A 2.26, Y 1.92
D15: M 2.02, P 2.01, H 1.68, I 1.56, G 1.98, V 1.8, K 1.65, L 1.81, S 1.54, Q 2.34, Y 1.66, C 2.32, A 1.98, R 2.14, T 2.12, N 2.17, W 2.13, E 1.87, F 1.76
Y11: L 2.65, K 3.13, S 2.62, H 2.71, I 1.86, F 2.01, E 3.29, A 2.58, Q 2.61, W 1.45, M 2.59, T 2.6, N 2.71, V 2.45, G 3.49, R 2.62, P 2.69, D 3.51, C 2.13
F4: M 2.4, S 2.52, Q 2.91, N 3.05, H 2.47, Y 2.07, W 2.27, R 3.08, K 2.77, G 2.68, D 2.9, V 2.2, T 2.97, I 1.89, C 2.31, P 2.54, E 2.66, A 2.44, L 2.17
Y17: L 2.22, R 2.1, H 2.81, P 2.81, C 2.38, T 1.89, I 2.16, S 2.43, Q 2.1, N 2.83, W 2.54, K 2.21, V 1.76, G 2.19, D 3.1, A 2.28, F 2.07, M 2.16, E 3
R16: W 2.03, K 2.01, E 3.15, S 1.98, V 2.42, P 2.5, M 2.78, T 2.6, D 2.85, F 2.21, H 2.51, G 2.56, Q 2.33, Y 1.75, C 2.23, N 2.57, L 2.12, A 2.3, I 2.74
E18: L 2.21, M 1.54, D 2.38, N 1.54, I 2.18, G 2.63, A 1.91, K 1.74, F 2.39, H 2.08, C 1.91
M8: G 2.07, R 2.02, K 2.52, I 2.16, F 2.23, A 1.81, C 2.19, L 2.18, D 3.11, E 3.08, P 2.64, V 2.3, Q 2.21, Y 2.4, N 2.54, T 2.39, H 2.17, S 2.4, W 2.34
H12: R 2.23, F 2.15, N 2.72, P 2.49, D 2.69, Y 1.97, V 1.75, E 2.39, Q 3.01, T 2.53, A 2.6, C 1.82, S 2.06, K 2.27, W 1.63, I 2, L 2.69, M 1.5, G 2.25
C9: Y 2.63, R 3.24, G 3.02, N 3.28, V 3.06, D 3.83, Q 2.57, T 3.55, W 2.36, A 2.98, L 3.05, H 2.63, E 3.7, S 3.42, K 3.19, F 2.34, P 3.09, I 3.08, M 3.06
E5: R 1.92, I 2.38, P 1.91, F 1.78, T 2.38, W 1.59, D 2.7, L 2.08, H 1.9, Y 1.85, V 2.01, Q 2.06, S 1.33, N 1.71, A 2.13, C 2.11, G 1.82, K 2.07, M 1.88
N7: M 1.97, F 1.33, L 1.79, V 2.04, Y 1.83, G 2.25, Q 2.01, P 3.61, K 2.37, R 1.49, S 1.72, H 2.25, A 1.75, E 2.29, T 2.18, I 2.05, D 2.51, W 1.93, C 1.89
R1: L 2.31, G 2.49, F 1.88, T 2.23, D 2.73, W 2.2, C 2.47, P 2.43, V 2.25, S 2.1, A 2.63, M 2.26, E 2.67, K 2.15, H 2.92, Q 2.55, Y 1.73, N 2.44, I 2.13
C6: N 2.56, M 2.02, R 2.06, S 2.5, P 2.23, G 2.3, V 2.5, E 3.58, L 1.99, D 3.8, H 2.43, K 2.49, I 2.14, F 1.96, Y 2.04, Q 2.38, A 2.5, W 2.5, T 3.21
D2: G 1.95, Q 2.04, Y 1.77, F 1.57, P 1.98, R 1.99, E 2.18, L 1.93, C 2.19, T 1.82, S 1.73, A 1.63, I 2.2, V 2.21, H 1.75, W 1.92, N 1.96, M 1.68, K 1.96
G10: A 2.16, H 2.33, Y 2.66, L 2.08, K 2.32, D 2.8, I 1.92, N 2.4, R 2.13, T 2.69, M 1.82, Q 2.58, E 2.79, W 1.73, C 2.49, S 2.7, F 1.81, P 2.44, V 2.07
P3: V 1.76, K 2.04, T 2.02, N 1.94, S 2.03, Y 1.5, G 1.94, M 1.76, L 1.68, I 1.91, C 2.21, W 1.69, D 2.99, E 2.29, F 1.44, H 2.59, Q 2.18, R 2.04, A 1.64
